Km data for 1 protein are collected here from patent publication US7704695B2, “Screening of compounds for BGT1 transporter activity” (XenoPort, Inc., priority 2005, dated 2010).

Substrate in this data set: NCCCC(=O)O
The data set can be described thus: hBGT1 direct uptake assay (LC-MS-MS). The data set is classed as cell-based, human. Conditions: other: HEK-TREx-hBGT1 cells induced to express hBGT1.

Protocol: A modified direct uptake assay was developed to determine the ability of test compounds to be transported into HEK-TREx cells induced to over-express hBGT1. Four concentrations (bracketing the affinity as measured by competition assays) per compound were routinely tested. Non-specific uptake was determined by measuring the uptake into cells not induced to express the transporter (“no tet”).
Typically, four concentrations bracketing the IC50 were tested. The highest test concentration for each compound was made in an Eppendorf tube and diluted into HBSS. The samples were robustly vortexed and centrifuged for 10 minutes at 13,200 rpm to spin down any precipitate. […] Three additional 2-fold dilutions were made in the subsequent rows (B-D or F-G) in HBSS.
An internal standard of 50 μM propranolol in 50:50 ethanol:water was also prepared. To prepare standard curves, several concentrations of the test compounds were diluted into HEK cell extract (prepared from tet-treated, mock-incubated, and extracted cells as described below) with a final internal standard concentration of 5 μM. Standards of 10, 5, 1, 0.5, 0.1, 0.05, 0.01, and 0.005 μM were routinely run for each test compound. […]

B1: hBGT1 (Homo sapiens) (protein)
chain: MDGKVAVQECGPPAVSWVPEEGEKLDQEDEDQVKDRGQWTNKMEFVLSVAGEIIGLGNVWRFPYLCYKNGGGAFFIPYFIFFFVCGIPVFFLEVALGQYTSQGSVTAWRKICPLFQGIGLASVVIESYLNVYYIIILAWALFYLFSSFTSELPWTTCNNFWNTEHCTDFLNHSGAGTVTPFENFTSPVMEFWERRVLGITSGIHDLGSLRWELALCLLLAWVICYFCIWKGVKSTGKVVYFTATFPYLMLVILLIRGVTLPGAYQGIIYYLKPDLFRLKDPQVWMDAGTQIFFSFAICQGCLTALGSYNKYHNNCYKDCIALCFLNSATSFVAGFVVFSILGFMSQEQGVPISEVAESGPGLAFIAFPKAVTMMPLSQLWSCLFFIMLIFLGLDSQFVCVECLVTASIDMFPRQLRKSGRRELLILTIAVMCYLIGLFLVTEGGMYIFQLFDYYASSGICLLFLSLFEVVCISWVYGADRFYDNIEDMIGYRPWPLVKISWLFLTPGLCLATFLFSLSKYTPLKYNNVYVYPPWGYSIGWFLALSSMVCVPLFVVITLLKTRGPFRKRLRQLITPDSSLPQPKQHPCLDGSAGRNFGPSPTREGLIAGEKETHL
notes: expressed in transfected cells; host or cells: HEK-TREx cells (HEK-TREx-BGT1 inducible line), induced with tetracycline/doxycycline and butyrate
For B1, the Michaelis-Menten constant (Km) amounted to 27 µM.
